# B1: Phage-329 (peptide)
# peptide: MDWCPRALWNVCFA
# notes: Clonal phage of the Peptide-9 library; also called the position column gives N at position 14)
# B2: Phage-330 (peptide)
# peptide: MDWCPRFLWDVCFN
# notes: Clonal phage of the Peptide-9 library; also called the position column gives F at position 7)
# B3: Phage-318 (peptide)
# peptide: MDWCPMFLWDECFN
# notes: as for B2
# B4: Peptide-278 (peptide)
# peptide: PEHLCLPRWMCEGF
# notes: From the Peptide-180 optimisation phage library
# B5: Peptide-276 (peptide)
# peptide: ITPICKPAWICSGF
# notes: as for B4
# B6: Peptide-272 (peptide)
# peptide: LHVYCVPEWMCAGF
# notes: as for B4
# B7: Peptide-262 (peptide)
# peptide: IVPLCKPAWMCKLF
# notes: as for B4
# B8: Peptide-266 (peptide)
# peptide: TAHHCKPAWMCTGF
# notes: as for B4
# B9: Peptide-273 (peptide)
# peptide: LEPLCVPRWMCVGF
# notes: as for B4
# B10: Peptide-261 (peptide)
# peptide: YFVQCRPAWMCEGF
# notes: as for B4
# B11: Peptide-264 (peptide)
# peptide: VQIQCRPAWMCLGF
# notes: as for B4
# B12: Peptide-279 (peptide)
# peptide: YERACIPNWICEGF
# notes: as for B4
# B13: Peptide-269 (peptide)
# peptide: EEPLCRPVWMCEGF
# notes: as for B4
# B14: Peptide-265 (peptide)
# peptide: AEVKCIPQWMCQGF
# notes: as for B4
# Target: T1, anti-CD28 scFv (VH - linker 1 - VL) (biotinylated (site not stated))
# T1 sequence (scFv, as listed by the source): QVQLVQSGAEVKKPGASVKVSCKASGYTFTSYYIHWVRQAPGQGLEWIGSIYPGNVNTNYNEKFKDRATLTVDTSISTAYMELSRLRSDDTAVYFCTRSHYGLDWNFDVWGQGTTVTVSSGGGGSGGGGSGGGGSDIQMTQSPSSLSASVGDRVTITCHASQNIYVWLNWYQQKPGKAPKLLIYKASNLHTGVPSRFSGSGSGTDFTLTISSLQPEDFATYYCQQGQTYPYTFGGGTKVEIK
# Assay: phage ELISA; biotinylated anti-CD28 scFv on neutravidin plate, clonal phage supernatant, anti-M13-HRP;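 further: before the phage were added, wells were pre-incubated with soluble CD28 protein in blocking buffer, or with blocking buffer alone, and were not washed in between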
row,Binder,CD28 scFv signal
1,MDWCPKPLWHVCFA [Phage-337 clonal phage peptide MDWCPKPLWHVCFA],2.02
2,LDWCPRHLWALCFN [Phage-349 clonal phage peptide LDWCPRHLWALCFN],1.78
3,MDWCPWFLWNECFN [Phage-350 clonal phage peptide MDWCPWFLWNECFN],1.77
4,MDFCPRFLWHECFN [Phage-345 clonal phage peptide MDFCPRFLWHECFN],1.91
5,MDWCPRTLWDQCFF [Phage-339 clonal phage peptide MDWCPRTLWDQCFF],1.99
6,MDWCPRHLWDECFN [Phage-341 clonal phage peptide MDWCPRHLWDECFN],1.98
7,MDWCPRHLWVHCFS [Phage-344 clonal phage peptide MDWCPRHLWVHCFS],1.91
8,MAWCPWYLWDECFN [Phage-348 clonal phage peptide MAWCPWYLWDECFN],1.81
9,IDWCPLHLWHECYH [Phage-353 clonal phage peptide IDWCPLHLWHECYH],1.69
10,MDWCPRDLWTQCFF [Phage-343 clonal phage peptide MDWCPRDLWTQCFF],1.93
11,MDWCPMYLWDECFF [Phage-356 clonal phage peptide MDWCPMYLWDECFF],1.65
12,MDWCPMFLWHECFS [Phage-360 clonal phage peptide … (as printed)],1.44
13,MNWCPMHLWAECFN [Phage-363 clonal phage peptide MNWCPMHLWAECFN],1.39
14,MDWCPIHLWYECFN [Phage-352 clonal phage peptide MDWCPIHLWYECFN],1.73
15,MDWCPRHLWHACFS [Phage-346 clonal phage peptide MDWCPRHLWHACFS],1.83
16,MDWCPRFLWNECFY [Phage-338 clonal phage peptide MDWCPRFLWNECFY],2
17,MDWCPRDLWNWCFN [Phage-336 clonal phage peptide MDWCPRDLWNWCFN],2.03
18,MDWCPRLLWHECFN [Phage-357 clonal phage peptide MDWCPRLLWHECFN],1.6
19,MHWCPRHLWSECFN [Phage-361 clonal phage peptide MHWCPRHLWSECFN],1.43
20,MDWCPRNLWHECFA [Phage-342 clonal phage peptide MDWCPRNLWHECFA],1.97
21,MDWCPMNLWHECFA [Phage-351 clonal phage peptide MDWCPMNLWHECFA],1.74
22,MDWCPRPLWHECFA [Phage-359 clonal phage peptide MDWCPRPLWHECFA],1.44
23,MDWCPRILWHECFS [Phage-362 clonal phage peptide MDWCPRILWHECFS],1.39
24,MDWCPRYLWLECFN [Phage-354 clonal phage peptide MDWCPRYLWLECFN],1.69
25,MSWCPIDLWSECFA [Phage-340 clonal phage peptide MSWCPIDLWSECFA],1.99

# Target: T2, Anti-CD28 scFv (VH - linker 1 - VL) (biotinylated (site not stated))
# T2 construct: Biotinylated anti-CD28 scFv captured on neutravidin coated plates in the panning ELISA
# T2 sequence (scFv, as listed by the source): as above
# Assay: as above
row,Binder,CD28 scFv signal
1,B1,2.14
2,MDWCPRHLWYECFS (Clonal phage of the Peptide-9 library) [Phage-324],2.17
3,MDWCPRHLWIECFN (Clonal phage of the Peptide-9 library) [Phage-322],2.21
4,MDWCPTYLWNECFN (Clonal phage of the Peptide-9 library) [Phage-320],2.24
5,B2,2.14
6,MDWCPRHLWDECFY (Clonal phage of the Peptide-9 library) [Phage-331],2.13
7,MDWCPRHLWHECFT (Clonal phage of the Peptide-9 library) [Phage-317],2.3
8,MDWCPTYLWHVCFS (Clonal phage of the Peptide-9 library) [Phage-315],2.32
9,IDWCPRALWDACLA (Clonal phage of the Peptide-9 library) [Phage-332],2.1
10,B3,2.29
11,MHWCPRDLWHVCFN (Clonal phage of the Peptide-9 library) [Phage-327],2.15
12,MDWCPRFLWDYCFA (Clonal phage of the Peptide-9 library) [Phage-335],2.03
13,MDWCPRYLWDECFS (Clonal phage of the Peptide-9 library) [Phage-334],2.06
14,MDWCPAYLWDECFA (Clonal phage of the Peptide-9 library) [Phage-325],2.17
15,MDWCPRALWDHCFN (Clonal phage of the Peptide-9 library) [Phage-328],2.15
16,MDWCPTDLWHECFA (Clonal phage of the Peptide-9 library) [Phage-333],2.07
17,MDWCPTYLWNVCFA (Clonal phage of the Peptide-9 library) [Phage-323],2.21
18,MDWCPRDLWYVCFA (Clonal phage of the Peptide-9 library) [Phage-321],2.22
19,MSWCPRDLWHLCFF (Clonal phage of the Peptide-9 library) [Phage-319],2.27
20,MFWCPITLWNECFN (Clonal phage of the Peptide-9 library) [Phage-326],2.15

# Target: T3, PSMA Fab
# T3 construct: also called 006 PSMA Fab; anti-PSMA Fab
# Assay: competition ELISA; peptide 0-100 µM with 0.3 nM PSMA Fab on plate-captured biotinylated PSMA
row,Binder,IC50 [nM]
1,B4,2400
2,B5,3460
3,B6,1920
4,B7,1300
5,B8,1810
6,B9,900
7,B10,1300
8,B11,1140
9,B12,5180
10,B13,9140
11,B14,1780

# Target: T2, Anti-CD28 scFv (VH - linker 1 - VL)
# Assay: phage ELISA as above; wells pre-incubated with soluble CD28 as competitor;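 further: crude clonal phage supernatants tested, with bound phage detected by HRP-conjugated anti-M13 antibody, and reference wells given blocking buffer without CD28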
# Procedure: (§1) Clonal phage were harvested as crude supernatants and screened via standard enzyme linked immunosorbent assays (ELISAs). […] Prior to the addition of clonal phage, wells were incubated with blocking buffer and CD28 soluble protein or blocking buffer alone. Without washing or aspirating, clonal phage supernatants were then added to the wells and incubated for a short time. Wells were then washed followed by detection of bound phage using a horse radish peroxidase conjugated anti-M13 antibody.
row,Binder,CD28 scFv signal in presence of CD28
1,B1,0.249
2,MDWCPRHLWYECFS (Clonal phage of the Peptide-9 library) [Phage-324],0.163
3,MDWCPRHLWIECFN (Clonal phage of the Peptide-9 library) [Phage-322],0.376
4,MDWCPTYLWNECFN (Clonal phage of the Peptide-9 library) [Phage-320],0.606
5,B2,0.309
6,MDWCPRHLWDECFY (Clonal phage of the Peptide-9 library) [Phage-331],0.146
7,MDWCPRHLWHECFT (Clonal phage of the Peptide-9 library) [Phage-317],0.32
8,MDWCPTYLWHVCFS (Clonal phage of the Peptide-9 library) [Phage-315],0.16
9,IDWCPRALWDACLA (Clonal phage of the Peptide-9 library) [Phage-332],0.164
10,B3,0.203
11,MHWCPRDLWHVCFN (Clonal phage of the Peptide-9 library) [Phage-327],0.15
12,MDWCPRFLWDYCFA (Clonal phage of the Peptide-9 library) [Phage-335],0.207
13,MDWCPRYLWDECFS (Clonal phage of the Peptide-9 library) [Phage-334],0.164
14,MDWCPAYLWDECFA (Clonal phage of the Peptide-9 library) [Phage-325],0.163
15,MDWCPRALWDHCFN (Clonal phage of the Peptide-9 library) [Phage-328],0.293
16,MDWCPTDLWHECFA (Clonal phage of the Peptide-9 library) [Phage-333],0.154
17,MDWCPTYLWNVCFA (Clonal phage of the Peptide-9 library) [Phage-323],0.132
18,MDWCPRDLWYVCFA (Clonal phage of the Peptide-9 library) [Phage-321],0.138
19,MSWCPRDLWHLCFF (Clonal phage of the Peptide-9 library) [Phage-319],0.319
20,MFWCPITLWNECFN (Clonal phage of the Peptide-9 library) [Phage-326],0.143

# Target: T1, anti-CD28 scFv (VH - linker 1 - VL)
# Assay: phage ELISA as above; wells pre-incubated with soluble CD28 (competitor)
# Procedure: as §1
row,Binder,CD28 scFv signal in presence of CD28
1,MDWCPKPLWHVCFA [Phage-337 clonal phage peptide MDWCPKPLWHVCFA],0.152
2,LDWCPRHLWALCFN [Phage-349 clonal phage peptide LDWCPRHLWALCFN],0.24
3,MDWCPWFLWNECFN [Phage-350 clonal phage peptide MDWCPWFLWNECFN],0.279
4,MDFCPRFLWHECFN [Phage-345 clonal phage peptide MDFCPRFLWHECFN],0.225
5,MDWCPRTLWDQCFF [Phage-339 clonal phage peptide MDWCPRTLWDQCFF],0.314
6,MDWCPRHLWDECFN [Phage-341 clonal phage peptide MDWCPRHLWDECFN],0.268
7,MDWCPRHLWVHCFS [Phage-344 clonal phage peptide MDWCPRHLWVHCFS],0.173
8,MAWCPWYLWDECFN [Phage-348 clonal phage peptide MAWCPWYLWDECFN],0.267
9,IDWCPLHLWHECYH [Phage-353 clonal phage peptide IDWCPLHLWHECYH],0.182
10,MDWCPRDLWTQCFF [Phage-343 clonal phage peptide MDWCPRDLWTQCFF],0.119
11,MDWCPMYLWDECFF [Phage-356 clonal phage peptide MDWCPMYLWDECFF],0.178
12,MDWCPMFLWHECFS [Phage-360 clonal phage peptide … (as printed)],0.193
13,MNWCPMHLWAECFN [Phage-363 clonal phage peptide MNWCPMHLWAECFN],0.14
14,MDWCPIHLWYECFN [Phage-352 clonal phage peptide MDWCPIHLWYECFN],0.203
15,MDWCPRHLWHACFS [Phage-346 clonal phage peptide MDWCPRHLWHACFS],0.167
16,MDWCPRFLWNECFY [Phage-338 clonal phage peptide MDWCPRFLWNECFY],0.287
17,MDWCPRDLWNWCFN [Phage-336 clonal phage peptide MDWCPRDLWNWCFN],0.39
18,MDWCPRLLWHECFN [Phage-357 clonal phage peptide MDWCPRLLWHECFN],0.109
19,MHWCPRHLWSECFN [Phage-361 clonal phage peptide MHWCPRHLWSECFN],0.478
20,MDWCPRNLWHECFA [Phage-342 clonal phage peptide MDWCPRNLWHECFA],0.175
21,MDWCPMNLWHECFA [Phage-351 clonal phage peptide MDWCPMNLWHECFA],0.16
22,MDWCPRPLWHECFA [Phage-359 clonal phage peptide MDWCPRPLWHECFA],0.138
23,MDWCPRILWHECFS [Phage-362 clonal phage peptide MDWCPRILWHECFS],0.174
24,MDWCPRYLWLECFN [Phage-354 clonal phage peptide MDWCPRYLWLECFN],0.368
25,MSWCPIDLWSECFA [Phage-340 clonal phage peptide MSWCPIDLWSECFA],0.148

# — patent US20260242478A1 (published 2026)
